Laboratory results as given in article PMC12521514.
Values belong to the molecule of their own block, whether it stands above or below them.

How the values were obtained:
[1] = biological target: ClpP-N12A (Staphylococcus aureus) (UniProt Q2G036); experiment: negative stain EM
[2] = biological target: T1, Staphylococcus aureus ClpP wild type (Staphylococcus aureus), Q2G036; settings: remark: other sources report otherwise
T1 chain: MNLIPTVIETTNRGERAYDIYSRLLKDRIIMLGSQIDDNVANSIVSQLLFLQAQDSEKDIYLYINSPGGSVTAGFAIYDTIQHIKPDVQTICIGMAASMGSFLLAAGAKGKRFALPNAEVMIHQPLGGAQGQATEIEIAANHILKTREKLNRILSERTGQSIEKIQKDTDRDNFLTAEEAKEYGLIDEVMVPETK

Molecule: ClpP-N12A (from UniProt Q2G036) (enzyme)
- stoichiometry N [1]: 14

- stoichiometry N [2]: 14
B1: Staphylococcus aureus ClpP wild type, Q2G036 1-195 (enzyme)
chain: T1 chain
